The test system of data set [1] is T1, synthetic peptide (SEQ ID NO: 11).
T1 sequence: EPPLSQEAFADLWKK

The subject of data set [2] is T2, synthetic peptide (SEQ ID NO: 20).
T2 sequence: EPPLSEQAFADLWKK

We go through three substances from US6803203.

For the substance casein kinase I, the “incorporation of phosphate into the peptide (200 or 500 µM)” value (shortened to “incorporation”) in data set [1] and in data set [2] was “less than 5% of the incorporation into the standard peptides used to assay each kinase” each time.
Take casein kinase II: the “incorporation” value in data set [1] and in data set [2] was “less than 5% of the incorporation into the standard peptides used to assay each kinase” in each case.
In the case of catalytic subunit of cyclic AMP kinase, the “incorporation” value in data set [1] and in data set [2] was “less than 5% of the incorporation into the standard peptides used to assay each kinase” each time.
